Test results taken from paper PMC3936712.
Read-outs that look alike come from different tables or passages of the source.

How the values were obtained:
Assay in all cases: fluorescence anisotropy
[1] = target: T1, jRdRp (NS5 RdRp module, wt) (Japanese encephalitis virus strain …, UniProt O90417 2799-3432)
[2] = target: T1, jRdRp (NS5 RdRp module, wt); remark: listed apart in the source
[3] = target: T1, jRdRp (NS5 RdRp module, wt); remark: listed apart in the source

Binder: AUAAACUUCU (ssRNA) [10mer ssRNA (FR10)]
- Kd [1]: 0.0393 ± 0.0023 µM
- Kd [2]: 0.0404 ± 0.0021 µM
- Kd [3]: 0.0339 ± 0.0006 µM
